The target of the assay is chimeric TSH receptor (chimeric MC4 receptor) expressed on CHO-MC4 cells (human/rat chimera) (UniProt P16473). As to the kind of experiment: cell-based or functional assay.

thyroid blocking monoclonal antibody K1-70, sequence (VH): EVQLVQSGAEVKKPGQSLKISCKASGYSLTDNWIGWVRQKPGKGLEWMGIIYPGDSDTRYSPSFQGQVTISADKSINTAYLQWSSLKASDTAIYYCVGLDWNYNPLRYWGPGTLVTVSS
thyroid blocking monoclonal antibody K1-70, sequence (VL): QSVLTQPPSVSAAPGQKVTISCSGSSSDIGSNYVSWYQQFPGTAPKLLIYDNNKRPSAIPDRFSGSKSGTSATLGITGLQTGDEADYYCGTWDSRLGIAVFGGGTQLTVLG

In turn, follicle stimulating hormone (ligand) showed a % inhibition, TBI assay, FSH 116.3 mIU/ml in reaction buffer (no K1-70) of 0%; a % inhibition, TBI assay, FSH 232.6 mIU/ml in reaction buffer (no K1-70) of 1%; an RLU, TBI assay, FSH 116.3 mIU/ml in reaction buffer (no K1-70) of 16500 RLU; an RLU, TBI assay, FSH 232.6 mIU/ml in reaction buffer (no K1-70) of 16300 RLU.

For “human chorionic gonadotropin (from UniProt P01215 25-116; P0DN86 21-165) (ligand)”, the % inhibition, TBI assay, hCG 8000 mIU/ml in reaction buffer (no K1-70) is -7%; the % inhibition, TBI assay, hCG 16000 mIU/ml in reaction buffer (no K1-70) came to 0%; the RLU, TBI assay, hCG 8000 mIU/ml in reaction buffer (no K1-70) came out at 17500 RLU; the RLU, TBI assay, hCG 16000 mIU/ml in reaction buffer (no K1-70) amounted to 16500 RLU.

As for luteinizing hormone (ligand), the % inhibition, TBI assay, LH 20 mIU/ml in reaction buffer (no K1-70) was -5%; the % inhibition, TBI assay, LH 40 mIU/ml in reaction buffer (no K1-70) was -6%; the RLU, TBI assay, LH 20 mIU/ml in reaction buffer (no K1-70) was found to be 17300 RLU; the RLU, TBI assay, LH 40 mIU/ml in reaction buffer (no K1-70) worked out at 17400 RLU.

On to “thyroid blocking monoclonal antibody K1-70”, for which the % inhibition, TBI assay, 2.5 ng K1-70 (TBI positive) was 86%; the % inhibition, TBI assay, K1-70 0.0025 ng/ml is -6%; the % inhibition, TBI assay, K1-70 0.1 ng/ml turned out to be 6%; the % inhibition, TBI assay, K1-70 0.4 ng/ml was 25%. For the same substance, the % inhibition, TBI assay, K1-70 0.6 ng/ml was determined as 27%; the % inhibition, TBI assay, K1-70 1 ng/ml came out at 38%; the % inhibition, TBI assay, K1-70 1.5 ng/ml was 55%; the % inhibition, TBI assay, K1-70 1.56 ng/ml amounted to 60%. For the same substance, the % inhibition, TBI assay, K1-70 5 ng/ml worked out at 102%; the % inhibition, TBI assay, K1-70 10 ng/ml stood at 114%; the % inhibition, TBI assay, K1-70 12.5 ng/ml turned out to be 104%; the % inhibition, TBI assay, K1-70 25 ng/ml came out at 104%. Moreover, the % inhibition, TBI assay, K1-70 50 ng/ml came out at 103%; the % inhibition, TBI assay, K1-70 100 ng/ml was 101%; the % inhibition, TBI assay, K1-70 only 100% (5 ng/ml K1-70) was found to be 94%; the % inhibition, TBI assay, mixture M22:K1-70 10:90 is 77%. In addition, the % inhibition, TBI assay, mixture M22:K1-70 20:80 is 51%; the % inhibition, TBI assay, mixture M22:K1-70 30:70 was 27%; the % inhibition, TBI assay, mixture M22:K1-70 50:50 was -37%; the % inhibition, TBI assay, mixture M22:K1-70 60:40 is -59%. Also, the % inhibition, TBI assay, mixture M22:K1-70 90:10 was -98%; the IC50, TBI bioassay was determined as 1.34 ng/mL; the IC50 of TBI assay with CHO-MC4 cells was 1.34 ng/mL; the RLU, TBI assay, 2.5 ng K1-70 (TBI positive) came to 5530 RLU. This substance also came in with an RLU, TBI assay, 2.5 ng K1-70 with FSH 116.3 mIU/ml of 6100 RLU; an RLU, TBI assay, 2.5 ng K1-70 with FSH 232.6 mIU/ml of 5810 RLU; an RLU, TBI assay, 2.5 ng K1-70 with LH 20 mIU/ml of 6100 RLU; an RLU, TBI assay, 2.5 ng K1-70 with LH 40 mIU/ml of 5770 RLU. Also, the RLU, TBI assay, 2.5 ng K1-70 with hCG 8000 mIU/ml amounted to 6000 RLU; the RLU, TBI assay, 2.5 ng K1-70 with hCG 16000 mIU/ml came out at 5950 RLU; the RLU, TBI assay, K1-70 0.0025 ng/ml worked out at 16400 RLU; the RLU, TBI assay, K1-70 0.05 ng/ml came out at 15700 RLU. Moreover, the RLU, TBI assay, K1-70 0.1 ng/ml worked out at 13600 RLU; the RLU, TBI assay, K1-70 0.2 ng/ml is 14100 RLU; the RLU, TBI assay, K1-70 0.4 ng/ml is 12800 RLU; the RLU, TBI assay, K1-70 0.6 ng/ml was determined as 12600 RLU. Moreover, the RLU, TBI assay, K1-70 0.8 ng/ml was determined as 12700 RLU; the RLU, TBI assay, K1-70 1 ng/ml was 11300 RLU; the RLU, TBI assay, K1-70 1.5 ng/ml was determined as 9420 RLU; the RLU, TBI assay, K1-70 2 ng/ml worked out at 7940 RLU. The RLU, TBI assay, K1-70 2.5 ng/ml turned out to be 6620 RLU; the RLU, TBI assay, K1-70 5 ng/ml was 4010 RLU; the RLU, TBI assay, K1-70 10 ng/ml came out at 2700 RLU; the RUT, TBI assay, K1-70 only 100% (5 ng/ml K1-70) was determined as 2420 RUT. Also, the RUT, TBI assay, mixture M22:K1-70 10:90 is 4000 RUT; the RUT, TBI assay, mixture M22:K1-70 20:80 came to 6470 RUT; the RUT, TBI assay, mixture M22:K1-70 30:70 amounted to 8650 RUT; the RUT, TBI assay, mixture M22:K1-70 40:60 was 12300 RUT. In addition, the RUT, TBI assay, mixture M22:K1-70 50:50 is 14600 RUT; the RUT, TBI assay, mixture M22:K1-70 60:40 is 16700 RUT; the RUT, TBI assay, mixture M22:K1-70 70:30 came out at 17600 RUT; the RUT, TBI assay, mixture M22:K1-70 80:20 came to 19600 RUT. In addition, the RUT, TBI assay, mixture M22:K1-70 90:10 came out at 20400 RUT and the sensitivity of TBI bioassay against TRAb assay was over 20 fold.

With “thyroid stimulating monoclonal antibody M22”, the % inhibition, TBI assay, M22 0.02 ng/ml was found to be 2%; the % inhibition, TBI assay, M22 0.04 ng/ml is 0%; the % inhibition, TBI assay, M22 0.05 ng/ml was -6%; the % inhibition, TBI assay, M22 0.06 ng/ml is -11%. Also, the % inhibition, TBI assay, M22 0.08 ng/ml is -21%; the % inhibition, TBI assay, M22 0.1 ng/ml was -27%; the % inhibition, TBI assay, M22 0.15 ng/ml was -32%; the % inhibition, TBI assay, M22 0.2 ng/ml was -52%. The % inhibition, TBI assay, M22 0.25 ng/ml was -50%; the % inhibition, TBI assay, M22 0.3 ng/ml is -65%; the % inhibition, TBI assay, M22 0.35 ng/ml was -63%; the % inhibition, TBI assay, M22 0.4 ng/ml is -64%. Also, the % inhibition, TBI assay, M22 0.6 ng/ml was -66%; the % inhibition, TBI assay, M22 0.8 ng/ml was -73%; the % inhibition, TBI assay, M22 1.2 ng/ml was -83%; the % inhibition, TBI assay, M22 only 100% (0.8 ng/ml M22) is -106%. The same substance showed an EC50 of stimulatory activity, TBI assay of 0.16 ng/mL; an EC50 of stimulatory activity, TSI assay of 0.14 ng/mL; an RLU, TBI assay, M22 0.02 ng/ml of 9070 RLU; an RLU, TBI assay, M22 0.04 ng/ml of 9260 RLU. Further, the RLU, TBI assay, M22 0.05 ng/ml is 9690 RLU; the RLU, TBI assay, M22 0.06 ng/ml was 10100 RLU; the RLU, TBI assay, M22 0.08 ng/ml amounted to 10900 RLU; the RLU, TBI assay, M22 0.1 ng/ml came to 11300 RLU. The substance further displayed an RLU, TBI assay, M22 0.15 ng/ml of 11700 RLU; an RLU, TBI assay, M22 0.2 ng/ml of 13300 RLU; an RLU, TBI assay, M22 0.25 ng/ml of 13100 RLU; an RLU, TBI assay, M22 0.3 ng/ml of 14300 RLU. Besides, the RLU, TBI assay, M22 0.35 ng/ml was 14100 RLU; the RLU, TBI assay, M22 0.4 ng/ml came out at 14200 RLU; the RLU, TBI assay, M22 0.6 ng/ml is 14400 RLU; the RLU, TBI assay, M22 0.8 ng/ml came out at 15000 RLU. Besides, the RLU, TBI assay, M22 1.2 ng/ml came out at 15700 RLU; the RUT, TBI assay, M22 only 100% (0.8 ng/ml M22) turned out to be 21200 RUT; the SRR % (TBI), M22 0.02 ng/ml was 61%; the SRR % (TBI), M22 0.04 ng/ml worked out at 95%. This substance showed an SRR % (TBI), M22 0.05 ng/ml of 111%; an SRR % (TBI), M22 0.06 ng/ml of 122%; an SRR % (TBI), M22 0.08 ng/ml of 146%; an SRR % (TBI), M22 0.1 ng/ml of 180%. The substance further returned an SRR % (TBI), M22 0.15 ng/ml of 236%; an SRR % (TBI), M22 0.2 ng/ml of 270%; an SRR % (TBI), M22 0.25 ng/ml of 283%; an SRR % (TBI), M22 0.3 ng/ml of 302%. The same substance showed an SRR % (TBI), M22 0.35 ng/ml of 315%; an SRR % (TBI), M22 0.4 ng/ml of 332%; an SRR % (TBI), M22 0.6 ng/ml of 368%; an SRR % (TBI), M22 0.8 ng/ml of 368%. The same substance returned an SRR % (TBI), M22 1.2 ng/ml of 365%.

These data come from patent US20200340991A1.
